{"source": "paper PMC13189263", "key": {"N6-I3 Ab (human)": {"target": "N6-I3 Ab (human)", "experiment": "SPR"}, "N6-I2 Ab (human)": {"target": "N6-I2 Ab (human)", "experiment": "SPR"}}}
{"substance": "BG505 MD39.3 SOSIP trimer", "values": [{"measurement": "Kd", "setting": "N6-I3 Ab (human)", "value": 3, "unit": "nM"}, {"measurement": "Kd", "setting": "N6-I2 Ab (human)", "value": 5.7, "unit": "nM"}]}
